Experimental data reported in publication PMC2063226, “High-affinity recombinant phage antibodies to the pan-carcinoma marker epithelial glycoprotein-2 for tumour targeting” (British Journal of Cancer, 1998).
Each block holds one molecule with its values, some of them ahead of it.

How the values were obtained:
[1] = target: recombinant epithelial glycoprotein-2 (EGP-2) (human) (UniProt P16422); assay: SPR; BIAcore; EGP-2 covalently coupled to a CM-5 sensorchip (350 RU, 'low-density' surface); antibody (at 200 nM) or antibody fragment flowed at 5 ul/min; koff fitted on t = 315-320 s (MOC-31 whole antibody: average of three fittings); kon from Ks against antibody concentration; room temperature; apparent values for the bivalent antibodies
[2] = target: T1, recombinant epithelial glycoprotein-2 (EGP-2) (human, UniProt P16422)
Target sequence in this assay (P16422 24-265): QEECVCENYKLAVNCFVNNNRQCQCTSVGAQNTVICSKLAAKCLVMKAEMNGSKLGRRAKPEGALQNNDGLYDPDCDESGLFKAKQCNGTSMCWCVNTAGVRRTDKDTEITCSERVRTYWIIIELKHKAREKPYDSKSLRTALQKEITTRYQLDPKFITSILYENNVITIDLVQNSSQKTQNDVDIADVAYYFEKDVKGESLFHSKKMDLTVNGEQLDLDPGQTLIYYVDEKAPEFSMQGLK

[3] = target: the molecule itself; assay: SEC; gel filtration (Superdex column) of the IMAC-purified scFv preparations; monomeric and dimeric forms separated
[4] = target: T1, recombinant epithelial glycoprotein-2 …; assay: SPR; BIAcore; EGP-2 covalently coupled to a CM-5 sensorchip (350 RU, 'low-density' surface); antibody (at 200 nM) or antibody fragment flowed at 5 ul/min; koff fitted on t = 315-320 s (MOC-31 whole antibody: average of three fittings); kon from Ks against antibody concentration; room temperature; apparent values for the bivalent antibodies; settings: both partners purified

koff [1]: 0.00034 s⁻¹
t1/2 [1]: 0.566 h
B2: MOC-31 scFv (soluble) (scFv)
scFv: QVQLQQSGPELKKPGETVKISCKASGYTFTNYGMNWVKQAPGKGLKWMGWINTYTGESTYADDFKGRFAFSLETSASAAYLQINNLKNEDTATYFCARFAIKGDYWGQGTTVTVSSGGGGSGGGGSGGGGSDIVLTQSPFSNPVTLGTSASISCRSTKSLLHSNGITYLYWYLQKPGQSPQLLIYQMSNLASGVPDRFSSSGSGTDFTLRISRVEAEDVGVYYCAQNLEIPRTFGGGTKLEIKR
notes: 15-residue (Gly4Ser)3 linker, written out from the printed formula; The screening ELISA of the methods used clones in pCANTAB6 (His6 before c-myc); also called monovalent MOC-31 scFv; source: E. coli TG1, pUC119-polyHIS6myc, periplasm; purified (IMAC on Talon resin, gel filtration, monomer) for SPR; periplasmic preparation for immunohistochemistry; induced bacterial supernatant for ELISA; not …
binding result [3]: binds

koff [4]: 0.0583 s⁻¹
kon [4]: 1.09e+06 M⁻¹ s⁻¹
t1/2 [4]: 12 s
B5: chimeric 17-1A (antibody, V domains shown)
VH: QVQLQQSGAELVRPGTSVKVSCKASGYAFTNYLIEWVKQRPGQGLEWIGVINPGSGGTNYNEKFKGKATLTADKSSSTAYMQLSSLTSDDSAVYFCARDGPWFAYWGQGTLVTVSA
VL: NIVMTQSPKSMSMSVGERVTLTCKASENVVTYVSWYQQKPEQSPKLLIYGASNRYTGVPDRFTGSGSATDFTLTISSVQAEDLADYHCGQGYSYPYTFGGGTKLEIK
notes: as the VH of m2 (17-1A); as the VL of m2 (17-1A); Whole bivalent antibody; also called chimeric version of 17-1A; source: gift from Dr SO Warnaar (Centocor, Leiden); copies: 2 + 2

More lines, now with the values behind:

Molecule: MOC-31 whole antibody
Ka [1]: 4.24e+08 M⁻¹
koff [1]: 5e-05 s⁻¹
kon [1]: 106000 M⁻¹ s⁻¹
t1/2 [1]: 3.85 h

B1: MOC-161 (antibody, V domains shown)
VH: QVQLQQSGTELIRPGTSVKISCKASGYAFTDYWLGWVKHRPGHGLEWIGDIYPGSDNTYYHEKFKGKATLTTDKSSSTAYMQLSSLTSEDSAVYFCARGLKGDYWGQGTTVTVSS
VL: DIQMTQSPSSLSAFSGGKVTITCKASQDIKKSIAWYQHKPGKGPRLLIHYTSTLQPGIPSRFSGSGSGEEYSFSISNLEPEDIATYYCQQYDNLRTFGGGTKLELK
binding result [2]: binds

B3: 323/A3 antibody (antibody, V domains shown)
VH: QIQLVQSGPELKKPGETVKISCKASGYTFTNYGMNWVRQASGEGLKWMGWINTYTGEPTYGEDFKGRFAFSLETSASTAYLQINNLKNEDTATYFCARFGNYVDYWGQGTTLTVSS
VL: DIVMTQAAFSNPVTLGTSASISCRSSKNLLHSNGITYLYWYLQKPGQSPHLLIYQMSNLASGVPDRFSSSGSGTDFTLRISRVEAEDVGVYYCAQNLEIPRTFGGGTKLEIK
notes: CDR3 identical); Murine whole bivalent antibody; source: gift from Dr SO Warnaar (Centocor, Leiden); copies: 2 + 2
koff [4]: 0.00106 s⁻¹
kon [4]: 251000 M⁻¹ s⁻¹
t1/2 [4]: 654 s

B4: 17-1A antibody (antibody, V domains shown)
VH: B5 VH
VL: B5 VL
notes: Murine whole bivalent antibody; also called 17-lA; source: gift from Dr SO Warnaar (Centocor, Leiden); copies: 2 + 2
koff [4]: 0.0382 s⁻¹
kon [4]: 595000 M⁻¹ s⁻¹
t1/2 [4]: 18 s
